The record followed here is PMC9723961 (Journal for Immunotherapy of Cancer, 2022).

The Kd is a measure of binding affinity in units of concentration.

Data set [1] deals with T1, Recombinant CD73-His (human, UniProt P21589). Kind of data set: cryo-EM structure.
The target in data set [2] is T1, Recombinant CD73-His. Description: BLI. For orientation: BLI is a label-free optical method that tracks binding on a fibre tip over time.
The data set “cryo-EM structure” deals with the molecule itself. Kind of data set: cryo-EM structure.

B1: Mupadolimab (antibody, V domains shown)
VH: QVQLVQSGAEVEKPGASVKVSCKASGYTFTSYWITWVRQAPGQGLEWMGDIYPGSGNTNYNEKFKTRVTITADKSTSTAYMELSSLRSEDTAVYYCAKEGGLTTEDYALDYWGQGTLVTVSS
VL: EIVLTQSPATLSLSPGERATLSCRASKNVSTSGYSYMHWYQQKPGQAPRLLIYLASNLESGIPPRFSGSGYGTDFTLTINNIESEDAAYYFCQHSRELPFTFGQGTKVEIK
Turning to B1, the “stoichiometry N” value with Recombinant CD73-His [1] was 2 antibodies per CD73 homodimer. In the data set with Recombinant CD73-His [2], the Kd amounted to 0.2 nM.

B2: Recombinant CD73-His (enzyme, human, UniProt P21589 27-549, looked up)
chain: WELTILHTNDVHSRLEQTSEDSSKCVNASRCMGGVARLFTKVQQIRRAEPNVLLLDAGDQYQGTIWFTVYKGAEVAHFMNALRYDAMALGNHEFDNGVEGLIEPLLKEAKFPILSANIKAKGPLASQISGLYLPYKVLPVGDEVVGIVGYTSKETPFLSNPGTNLVFEDEITALQPEVDKLKTLNVNKIIALGHSGFEMDKLIAQKVRGVDVVVGGHSNTFLYTGNPPSKEVPAGKYPFIVTSDDGRKVPVVQAYAFGKYLGYLKIEFDERGNVISSHGNPILLNSSIPEDPSIKADINKWRIKLDNYSTQELGKTIVYLDGSSQSCRFRECNMGNLICDAMINNNLRHTDEMFWNHVSMCILNGGGIRSPIDERNNGTITWENLAAVLPFGGTFDLVQLKGSTLKKAFEHSVHRYGQSTGEFLQVGGIHVVYDLSRKPGDRVVKLDVLCTKCRVPSYDPLKMDEVYKVILPNFLANGGDGFQMIKDELLRHDSGDQDINVVSTYISKMKVIYPAVEGRIKFS
For the molecule B2, the binding result in “cryo-EM structure” is listed as “binds”.
